Results taken from patent publication US8993725B2, “Notch-based fusion proteins and uses thereof” (The Trustees of Columbia University in the City of New York, priority 2004, dated 2015).

Test system: VEGF-induced angiogenesis
Assay: Mouse Dorsa Air Sac (DAS) assay of in vivo angiogenesis
Conditions: for VEGF-induced angiogenesis / neo-vascularization in vivo (summary statement): mouse
Excerpt: These Figures show the role of Notch signaling in VEGF-dependent in vivo angiogenesis. […] Representative photographs are shown. FIG. 25A show subcutaneous induced angiogenesis with 293/VEGF transfectant versus 293/VEGF also expressing Notch decoy (Notch-based fusion protein) N1ECDFc. […] MDA-MB-231 breast cancer cells produce VEGF (data not shown).

B1: N1ECDFc: Notch-based fusion protein or decoy: extracellular domain of Notch1 containing the EGF-repeats fused to the Fc portion of an antibody (protein)
chain: ARGLRCSQPSGTCLNGGRCEVANGTEACVCSGAFVGQRCQDPSPCLSTPCKNAGTCYVVDHGGIVDYACSCPLGFSGPLCLTPLANACLANPCRNGGTCDLLTLTEYKCRCPPGWSGKSCQQADPCASNPCANGGQCLPFESSYICGCPPGFHGPTCRQDVNECSQNPGLCRHGGTCHNEIGSYRCACRATHTGPHCELPYVPCSPSPCQNGGTCRPTGDTTHECACLPGFAGQNCEENVDDCPGNNCKNGGACVDGVNTYNCRCPPEWTGQYCTEDVDECQLMPNACQNAGTCHNSHGGYNCVCVNGWTGEDCSDNIDDCASAACFQGATCHDRVASFYCECPHGRTGLLCHLNDACISNPCNEGSNCDTNPVNGKAICTCPRGYTGPACSQDVDECALGANPCEHAGKCLNTLGSFECQCLQGYTGPRCEIDVNECISNPCQNDATCLDQIGEFQCICMPGYEGVYCEINTDECASSPCLHNGRCVDKINEFLCQCPKGFSGHLCQYDVDECASTPCKNGAKCLDGPNTYTCVCTEGYTGTHCEVDIDECDPDPCHIGLCKDGVATFTCLCQPGYTGHHCETNINECHSQPCRHGGTCQDRDNYYLCLCLKGTTGPNCEINLDDCASNPCDSGTCLDKIDGYECACEPGYTGSMCNVNIDECAGSPCHNGGTCEDGIAGFTCRCPEGYHDPTCLSEVNECNSNPCIHGACRDGLNGYKCDCAPGWSGTNCDINNNECESNPCVNGGTCKDMTSGYVCTCREGFSGPNCQTNINECASNPCLNQGTCIDDVAGYKCNCPLPYTGATCEVVLAPCATSPCKNSGVCKESEDYESFSCVCPTGWQGQTCEIDINECVKSPCRHGASCQNTNGSYRCLCQAGYTGRNCESDIDDCRPNPCHNGGSCTDGVNAAFCDCLPGFQGAFCEEDINECATNPCQNGANCTDCVDSYTCTCPTGFNGIHCENNTPDCTESSCFNGGTCVDGINSFTCLCPPGFTGSYCQYDVNECDSRPCLHGGTCQDSYGTYKCTCPQGYTGLNCQNLVRWCDSAPCKNGGKCWQTNTQYHCECRSGWTGFNCDVLSVSCEVAAQKRGIDVTLLCQHGGLCVDEEDKHYCHCQAGYTGSYCEDEVDECSPNPCQNGATCTDYLGGFSCKCVAGYHGSNCSEEINECLSQPCQNGGTCIDLTNTYKCSCPRGTQGVHCEINVDDCHPPLDPASRSPKCFNNGTCVDQVGGYTCTCPPGFVGERCEGDVNECLSNPCDPRGTQNCVQRVNDFHCECRAGHTGRRCESVINGCRGKPCRNGGVCAVASNTARGFICRCPARFEGATCENDARTCGSLRCLNGGTCISGPRSPTCLCLGSFTGPECQFPASSPCVGSNPCYNQGTCEPTSESPFYRCLCPAKFNGLLCHILDYSFTDLGPG
modifications: left off: a dimerising Fc or GST
notes: Notch-based fusion protein or decoy: extracellular domain of Notch1 containing the EGF-repeats fused to the Fc portion of an antibody
B1 was tested. Which “Vessel density, index of angiogenesis, MDA-MB-231” value (Ad-N1ECDFc infected MDA-MB-231 cells) did it give?
Its value is “is inhibited”.

And the “Induction of VEGFR-1 expression in vivo” value (VEGF-induced skin neovascularization model)?
The value was “blocks”.

What about the “Inhibition of MDA-MB-231-induced in vivo angiogenesis” value (adenovirus mediated expression, compared to adenovirus expressing LacZ) of the same molecule?
Its value is “clearly inhibited”.

What about the “Vessel density, index of angiogenesis, 293/VEGF” value (co-expression of 293/N1ECDFc) of the same molecule?
Its value is “is inhibited”.

What about the “Inhibition of 293/VEGF-induced in vivo angiogenesis” value (coexpression in 293/VEGF transfectant, compared to 293/VEGF alone) of the same molecule?
The value was “clearly inhibited”.

What about the “VEGF-induced angiogenesis / neo-vascularization in vivo (summary statement)” value of the same molecule?
The value was “inhibition of VEGF-induced angiogenesis”.

And the “VEGF-induced angiogenesis / neo-vascularization in vivo (summary statement)” value (listed as Notch-based fusion protein)?
Its value is “blocks VEGF-induced neo-vascularization”.
